Results taken from patent publication US20250340902A1, “GENE THERAPY FOR BVES-RELATED DISORDERS” (OHIO STATE INNOVATION FOUNDATION, priority 2022, published 2025).

Key:
[1] = biological target: Carnitine O-palmitoyltransferase 1, muscle isoform (Mus musculus) (UniProt Q924X2); assay: anti-HA co-IP from muscle, MS; CTRL 4
[2] = biological target: MICOS complex subunit Mic60 (Mus musculus) (UniProt Q8CAQ8); assay: anti-HA co-IP from muscle, MS; CTRL 4
[3] = biological target: Phosphorylase b kinase regulatory subunit beta (Mus musculus) (UniProt Q7TSH2); assay: anti-HA co-IP from muscle, MS; CTRL 4
[4] = biological target: Trifunctional enzyme subunit beta, mitochondrial (Mus musculus) (UniProt Q99JY0); assay: anti-HA co-IP from muscle, MS; CTRL 4
[5] = biological target: Charged multivesicular body protein 4b (Mus musculus) (UniProt Q9D8B3); assay: anti-HA co-IP from muscle, MS; CTRL 0
[6] = biological target: Ferrochelatase, mitochondrial (Mus musculus) (UniProt P22315); assay: anti-HA co-IP from muscle, MS; CTRL 0
[7] = biological target: Heterogeneous nuclear ribonucleoprotein M (Mus musculus) (UniProt Q9D0E1); assay: anti-HA co-IP from muscle, MS; CTRL 0
[8] = biological target: Transmembrane protein 201 (Mus musculus) (UniProt A2A8U2); assay: anti-HA co-IP from muscle, MS; CTRL 0
[9] = biological target: Leucine-rich PPR motif-containing protein, mitochondrial (Mus musculus) (UniProt Q6PB66); assay: anti-HA co-IP from muscle, MS; CTRL 0
[10] = biological target: ATP-sensitive inward rectifier potassium channel 11 (Mus musculus) (UniProt Q61743); assay: anti-HA co-IP from muscle, MS; CTRL 0
[11] = biological target: Actin-binding LIM protein 2 (Mus musculus) (UniProt Q8BL65); assay: anti-HA co-IP from muscle, MS; CTRL 0
Emerin (Mus musculus) = Emerin (Mus musculus) (UniProt O08579); assay: anti-HA co-IP from muscle, MS; CTRL 0
[12] = biological target: BAG family molecular chaperone regulator 2 (Mus musculus) (UniProt Q91YN9); assay: anti-HA co-IP from muscle, MS; CTRL 0
[13] = biological target: Chromatin-remodeling ATPase INO80 (Mus musculus) (UniProt Q6ZPV2); assay: anti-HA co-IP from muscle, MS; CTRL 0
Ankyrin-1 (Mus musculus) = Ankyrin-1 (Mus musculus) (UniProt Q02357); assay: anti-HA co-IP from muscle, MS; CTRL 0
[14] = biological target: Methylcrotonoyl-CoA carboxylase subunit alpha, mitochondrial (Mus musculus) (UniProt Q99MR8); assay: anti-HA co-IP from muscle, MS; CTRL 0
[15] = biological target: ATP-binding cassette sub-family C member 9 (Mus musculus) (UniProt P70170); assay: anti-HA co-IP from muscle, MS; CTRL 0
Sarcospan (Mus musculus) = Sarcospan (Mus musculus) (UniProt Q62147); assay: anti-HA co-IP from muscle, MS; CTRL 0
[16] = biological target: Sodium channel protein type 4 subunit alpha (Mus musculus) (UniProt Q9ER60); assay: anti-HA co-IP from muscle, MS; CTRL 0
[17] = biological target: Glutamate dehydrogenase 1, mitochondrial (Mus musculus) (UniProt P26443); assay: anti-HA co-IP from muscle, MS; CTRL 0
[18] = biological target: Glypican-4 (Mus musculus) (UniProt P51655); assay: anti-HA co-IP from muscle, MS; CTRL 0
[19] = biological target: Extended synaptotagmin-2 (Mus musculus) (UniProt Q3TZZ7); assay: anti-HA co-IP from muscle, MS; CTRL 0
[20] = biological target: mRNA turnover protein 4 homolog (Mus musculus) (UniProt Q9D0I8); assay: anti-HA co-IP from muscle, MS; CTRL 0
[21] = biological target: Gamma-sarcoglycan (Mus musculus) (UniProt P82348); assay: anti-HA co-IP from muscle, MS; CTRL 0
[22] = biological target: Acetyl-CoA acetyltransferase, mitochondrial (Mus musculus) (UniProt Q8QZT1); assay: anti-HA co-IP from muscle, MS; CTRL 0
[23] = biological target: DnaJ homolog subfamily B member 12 (Mus musculus) (UniProt Q9QYI4); assay: anti-HA co-IP from muscle, MS; CTRL 0
[24] = biological target: NEDD8-conjugating enzyme Ubc12 (Mus musculus) (UniProt P61082); assay: anti-HA co-IP from muscle, MS; CTRL 0
[25] = biological target: Mannose-binding protein C (Mus musculus) (UniProt P41317); assay: anti-HA co-IP from muscle, MS; CTRL 0
[26] = biological target: Platelet glycoprotein 4 (Mus musculus) (UniProt Q08857); assay: anti-HA co-IP from muscle, MS; CTRL 0
[27] = biological target: Ran GTPase-activating protein 1 (Mus musculus) (UniProt P46061); assay: anti-HA co-IP from muscle, MS; CTRL 0
[28] = biological target: CDP-diacylglycerol--inositol 3-phosphatidyltransferase (Mus musculus) (UniProt Q8VDP6); assay: anti-HA co-IP from muscle, MS; CTRL 0
[29] = biological target: Nuclear speckle splicing regulatory protein 1 (Mus musculus) (UniProt Q5NCR9); assay: anti-HA co-IP from muscle, MS; CTRL 0
[30] = biological target: Tetraspanin-8 (Mus musculus) (UniProt Q8R3G9); assay: anti-HA co-IP from muscle, MS; CTRL 0
[31] = biological target: Sodium/calcium exchanger 1 (Mus musculus) (UniProt P70414); assay: anti-HA co-IP from muscle, MS; CTRL 0
Nesprin-2 (Mus musculus) = Nesprin-2 (Mus musculus) (UniProt Q6ZWQ0); assay: anti-HA co-IP from muscle, MS; CTRL 0
[32] = biological target: MAP7 domain-containing protein 1 (Mus musculus) (UniProt A2AJI0); assay: anti-HA co-IP from muscle, MS; CTRL 0
[33] = biological target: Coatomer subunit delta (Mus musculus) (UniProt Q5XJY5); assay: anti-HA co-IP from muscle, MS; CTRL 0
[34] = biological target: Transcriptional regulator ATRX (Mus musculus) (UniProt Q61687); assay: anti-HA co-IP from muscle, MS; CTRL 0
[35] = biological target: Sodium/calcium exchanger 3 (Mus musculus) (UniProt S4R2P9); assay: anti-HA co-IP from muscle, MS; CTRL 0

Phosphorylase b kinase regulatory subunit beta (Mus musculus), sequence (Q7TSH2 whole entry): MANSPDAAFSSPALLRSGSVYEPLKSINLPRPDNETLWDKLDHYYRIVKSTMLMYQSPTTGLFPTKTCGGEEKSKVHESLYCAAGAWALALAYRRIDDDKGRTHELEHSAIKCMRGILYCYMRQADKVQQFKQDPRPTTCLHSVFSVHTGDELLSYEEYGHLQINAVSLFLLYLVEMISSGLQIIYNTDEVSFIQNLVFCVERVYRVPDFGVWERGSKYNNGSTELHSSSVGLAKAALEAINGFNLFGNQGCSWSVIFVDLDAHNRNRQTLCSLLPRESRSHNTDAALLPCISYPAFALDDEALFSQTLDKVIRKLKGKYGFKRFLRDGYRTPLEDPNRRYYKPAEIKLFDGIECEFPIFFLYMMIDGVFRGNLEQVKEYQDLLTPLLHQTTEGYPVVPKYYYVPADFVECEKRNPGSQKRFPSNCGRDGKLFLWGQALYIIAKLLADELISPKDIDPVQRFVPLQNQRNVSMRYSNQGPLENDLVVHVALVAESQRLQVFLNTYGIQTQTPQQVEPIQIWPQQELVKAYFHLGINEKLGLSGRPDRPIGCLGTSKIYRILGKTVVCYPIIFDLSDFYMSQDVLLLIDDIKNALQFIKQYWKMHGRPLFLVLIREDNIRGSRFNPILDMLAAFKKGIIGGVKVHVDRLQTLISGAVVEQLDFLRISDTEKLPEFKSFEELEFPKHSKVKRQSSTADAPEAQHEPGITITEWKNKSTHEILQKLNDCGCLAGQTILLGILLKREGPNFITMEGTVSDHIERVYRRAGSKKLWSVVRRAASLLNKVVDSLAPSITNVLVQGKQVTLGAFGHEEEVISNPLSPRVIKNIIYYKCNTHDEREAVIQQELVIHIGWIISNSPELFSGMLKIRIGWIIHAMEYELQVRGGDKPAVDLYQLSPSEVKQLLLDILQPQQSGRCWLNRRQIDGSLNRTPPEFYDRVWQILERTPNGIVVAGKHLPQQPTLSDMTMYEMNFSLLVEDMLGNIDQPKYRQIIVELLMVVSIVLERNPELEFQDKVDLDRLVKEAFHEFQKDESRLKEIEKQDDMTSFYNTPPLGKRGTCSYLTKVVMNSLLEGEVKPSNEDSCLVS
MAP7 domain-containing protein 1 (Mus musculus), sequence (A2AJI0 whole entry, the tested form may be a part): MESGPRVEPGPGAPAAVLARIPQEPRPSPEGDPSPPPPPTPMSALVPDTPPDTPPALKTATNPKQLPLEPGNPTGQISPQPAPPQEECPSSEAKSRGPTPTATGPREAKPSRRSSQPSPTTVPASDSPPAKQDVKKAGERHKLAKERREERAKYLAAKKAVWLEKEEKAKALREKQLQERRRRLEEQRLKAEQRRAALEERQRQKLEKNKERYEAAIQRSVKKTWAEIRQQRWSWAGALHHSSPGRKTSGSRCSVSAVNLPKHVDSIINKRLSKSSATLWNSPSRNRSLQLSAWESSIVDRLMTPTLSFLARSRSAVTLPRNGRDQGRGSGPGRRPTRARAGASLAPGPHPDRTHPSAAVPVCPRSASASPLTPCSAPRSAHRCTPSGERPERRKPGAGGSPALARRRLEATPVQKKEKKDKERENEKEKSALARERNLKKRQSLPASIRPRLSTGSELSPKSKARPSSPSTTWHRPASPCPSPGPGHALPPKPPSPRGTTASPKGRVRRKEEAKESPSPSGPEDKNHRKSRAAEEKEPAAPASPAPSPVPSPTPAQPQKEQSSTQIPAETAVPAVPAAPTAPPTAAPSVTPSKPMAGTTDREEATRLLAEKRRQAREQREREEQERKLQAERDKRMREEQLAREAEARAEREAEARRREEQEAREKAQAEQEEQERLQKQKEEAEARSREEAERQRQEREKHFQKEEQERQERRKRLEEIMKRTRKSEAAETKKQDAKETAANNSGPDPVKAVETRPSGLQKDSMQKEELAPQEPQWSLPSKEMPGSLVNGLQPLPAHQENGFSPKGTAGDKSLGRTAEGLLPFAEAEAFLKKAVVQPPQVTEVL
BAG family molecular chaperone regulator 2 (Mus musculus), sequence (Q91YN9 2-210 limits assumed): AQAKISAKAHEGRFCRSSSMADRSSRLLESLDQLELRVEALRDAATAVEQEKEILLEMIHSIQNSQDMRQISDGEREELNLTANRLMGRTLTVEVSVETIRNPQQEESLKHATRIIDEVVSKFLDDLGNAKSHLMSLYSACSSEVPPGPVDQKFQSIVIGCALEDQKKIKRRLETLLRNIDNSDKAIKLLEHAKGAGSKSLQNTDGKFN
Transcriptional regulator ATRX (Mus musculus), sequence (Q61687 whole entry): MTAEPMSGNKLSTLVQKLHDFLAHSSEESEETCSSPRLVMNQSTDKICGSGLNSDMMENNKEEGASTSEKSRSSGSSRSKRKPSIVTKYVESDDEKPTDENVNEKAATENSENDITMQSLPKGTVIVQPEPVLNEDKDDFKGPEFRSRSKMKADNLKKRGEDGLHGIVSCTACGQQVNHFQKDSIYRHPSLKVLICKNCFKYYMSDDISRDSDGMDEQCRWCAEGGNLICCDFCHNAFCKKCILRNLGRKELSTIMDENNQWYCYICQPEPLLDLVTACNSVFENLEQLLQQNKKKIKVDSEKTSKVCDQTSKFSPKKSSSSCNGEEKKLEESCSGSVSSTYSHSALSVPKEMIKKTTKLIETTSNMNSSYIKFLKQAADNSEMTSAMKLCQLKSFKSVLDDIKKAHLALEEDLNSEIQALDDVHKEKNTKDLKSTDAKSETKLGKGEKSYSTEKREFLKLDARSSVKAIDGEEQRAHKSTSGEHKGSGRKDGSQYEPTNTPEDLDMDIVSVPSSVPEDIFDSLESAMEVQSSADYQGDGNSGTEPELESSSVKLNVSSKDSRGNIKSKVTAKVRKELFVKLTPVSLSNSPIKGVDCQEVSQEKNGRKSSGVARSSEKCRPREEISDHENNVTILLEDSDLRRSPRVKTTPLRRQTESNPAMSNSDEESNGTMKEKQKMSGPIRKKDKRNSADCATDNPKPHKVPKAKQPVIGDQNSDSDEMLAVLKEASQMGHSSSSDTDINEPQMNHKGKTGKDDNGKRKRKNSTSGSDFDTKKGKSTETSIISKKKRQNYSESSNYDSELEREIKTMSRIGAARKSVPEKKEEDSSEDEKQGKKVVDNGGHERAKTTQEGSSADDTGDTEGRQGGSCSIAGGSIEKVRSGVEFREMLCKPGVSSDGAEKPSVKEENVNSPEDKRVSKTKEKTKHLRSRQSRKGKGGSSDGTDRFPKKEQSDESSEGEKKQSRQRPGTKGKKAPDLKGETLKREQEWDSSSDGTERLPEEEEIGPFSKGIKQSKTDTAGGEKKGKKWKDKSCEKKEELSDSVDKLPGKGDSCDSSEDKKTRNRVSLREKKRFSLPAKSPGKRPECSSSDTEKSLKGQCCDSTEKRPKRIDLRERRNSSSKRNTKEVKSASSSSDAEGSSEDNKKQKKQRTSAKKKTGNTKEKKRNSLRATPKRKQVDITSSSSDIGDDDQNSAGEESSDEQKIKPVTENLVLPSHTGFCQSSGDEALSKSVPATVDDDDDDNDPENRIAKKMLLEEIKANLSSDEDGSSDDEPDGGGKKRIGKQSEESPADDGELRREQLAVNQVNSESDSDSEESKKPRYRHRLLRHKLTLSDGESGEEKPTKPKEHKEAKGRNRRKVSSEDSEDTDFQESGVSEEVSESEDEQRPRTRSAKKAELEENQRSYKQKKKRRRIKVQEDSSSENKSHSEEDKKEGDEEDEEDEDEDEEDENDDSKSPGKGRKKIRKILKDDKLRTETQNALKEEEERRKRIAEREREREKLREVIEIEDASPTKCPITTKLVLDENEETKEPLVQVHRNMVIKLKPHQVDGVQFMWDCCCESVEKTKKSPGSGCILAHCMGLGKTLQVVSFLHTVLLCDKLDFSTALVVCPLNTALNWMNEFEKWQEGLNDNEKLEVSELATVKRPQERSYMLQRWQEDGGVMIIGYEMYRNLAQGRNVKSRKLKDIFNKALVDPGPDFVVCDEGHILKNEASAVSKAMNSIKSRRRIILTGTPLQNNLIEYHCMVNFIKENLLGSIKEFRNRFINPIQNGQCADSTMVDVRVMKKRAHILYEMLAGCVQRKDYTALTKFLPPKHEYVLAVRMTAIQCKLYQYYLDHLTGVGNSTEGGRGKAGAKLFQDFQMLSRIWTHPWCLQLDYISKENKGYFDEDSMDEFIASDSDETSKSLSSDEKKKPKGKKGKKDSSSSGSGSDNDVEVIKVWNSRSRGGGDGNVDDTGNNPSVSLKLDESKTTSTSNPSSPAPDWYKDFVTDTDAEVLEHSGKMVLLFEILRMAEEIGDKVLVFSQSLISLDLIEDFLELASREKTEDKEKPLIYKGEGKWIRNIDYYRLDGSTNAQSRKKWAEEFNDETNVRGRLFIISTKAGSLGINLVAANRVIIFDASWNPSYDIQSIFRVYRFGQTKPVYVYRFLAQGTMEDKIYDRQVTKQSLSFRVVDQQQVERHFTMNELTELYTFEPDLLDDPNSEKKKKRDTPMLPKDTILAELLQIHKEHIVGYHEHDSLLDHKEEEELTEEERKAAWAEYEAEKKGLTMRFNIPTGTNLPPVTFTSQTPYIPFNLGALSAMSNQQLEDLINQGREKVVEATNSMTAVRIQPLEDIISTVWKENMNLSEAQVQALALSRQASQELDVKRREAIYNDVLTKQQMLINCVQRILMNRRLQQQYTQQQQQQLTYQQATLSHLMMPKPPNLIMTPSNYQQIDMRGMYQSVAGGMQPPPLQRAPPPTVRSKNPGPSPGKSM
Ferrochelatase, mitochondrial (Mus musculus), sequence (P22315 54-422 limits assumed): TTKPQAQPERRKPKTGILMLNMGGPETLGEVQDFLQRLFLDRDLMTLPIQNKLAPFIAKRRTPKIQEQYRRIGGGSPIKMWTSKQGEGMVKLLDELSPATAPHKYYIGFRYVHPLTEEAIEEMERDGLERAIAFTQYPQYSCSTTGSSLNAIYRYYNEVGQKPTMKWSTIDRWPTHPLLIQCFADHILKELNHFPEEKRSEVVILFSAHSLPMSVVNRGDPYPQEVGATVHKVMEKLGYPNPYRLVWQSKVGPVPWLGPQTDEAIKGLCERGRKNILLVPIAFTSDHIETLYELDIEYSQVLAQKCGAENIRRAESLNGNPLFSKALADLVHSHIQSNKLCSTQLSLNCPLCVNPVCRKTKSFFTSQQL

- AAV9-BVES-HA (IP-MS count) [1]: 24
- AAV9-BVES-HA (IP-MS count) [2]: 15
- AAV9-BVES-HA (IP-MS count) [3]: 18
- AAV9-BVES-HA (IP-MS count) [4]: 13
- AAV9-BVES-HA (IP-MS count) [5]: 2
- AAV9-BVES-HA (IP-MS count) [6]: 2
- AAV9-BVES-HA (IP-MS count) [7]: 2
- AAV9-BVES-HA (IP-MS count) [8]: 2
- AAV9-BVES-HA (IP-MS count) [9]: 8
- AAV9-BVES-HA (IP-MS count) [10]: 4
- AAV9-BVES-HA (IP-MS count) [11]: 2
- AAV9-BVES-HA (IP-MS count) (Emerin (Mus musculus)): 6
- AAV9-BVES-HA (IP-MS count) [12]: 6
- AAV9-BVES-HA (IP-MS count) [13]: 2
- AAV9-BVES-HA (IP-MS count) (Ankyrin-1 (Mus musculus)): 31
- AAV9-BVES-HA (IP-MS count) [14]: 3
- AAV9-BVES-HA (IP-MS count) [15]: 14
- AAV9-BVES-HA (IP-MS count) (Sarcospan (Mus musculus)): 2
- AAV9-BVES-HA (IP-MS count) [16]: 19
- AAV9-BVES-HA (IP-MS count) [17]: 6
- AAV9-BVES-HA (IP-MS count) [18]: 11
- AAV9-BVES-HA (IP-MS count) [19]: 2
- AAV9-BVES-HA (IP-MS count) [20]: 2
- AAV9-BVES-HA (IP-MS count) [21]: 5
- AAV9-BVES-HA (IP-MS count) [22]: 5
- AAV9-BVES-HA (IP-MS count) [23]: 2
- AAV9-BVES-HA (IP-MS count) [24]: 2
- AAV9-BVES-HA (IP-MS count) [25]: 2
- AAV9-BVES-HA (IP-MS count) [26]: 2
- AAV9-BVES-HA (IP-MS count) [27]: 2
- AAV9-BVES-HA (IP-MS count) [28]: 2
- AAV9-BVES-HA (IP-MS count) [29]: 2
- AAV9-BVES-HA (IP-MS count) [30]: 2
- AAV9-BVES-HA (IP-MS count) [31]: 2
- AAV9-BVES-HA (IP-MS count) (Nesprin-2 (Mus musculus)): 2
- AAV9-BVES-HA (IP-MS count) [32]: 2
- AAV9-BVES-HA (IP-MS count) [33]: 2
- AAV9-BVES-HA (IP-MS count) [34]: 6
- AAV9-BVES-HA (IP-MS count) [35]: 3
Substance: human BVES fused with 3xHA tag (from UniProt Q8NE79 1-360)
